IntAct's records for PubMed 12117771

B1: Cadherin-related family member 2 (Homo sapiens), Q9BYE9 (parent)
chain: MAQLWLSCFLLPALVVSVAANVAPKFLANMTSVILPEDLPVGAQAFWLVAEDQDNDPLTYGMSGPNAYFFAVTPKTGEVKLASALDYETLYTFKVTISVSDPYIQVQREMLVIVEDRNDNAPVFQNTAFSTSINETLPVGSVVFSVLAVDKDMGSAGMVVYSIEKVIPSTGDSEHLFRILANGSIVLNGSLSYNNKSAFYQLELKACDLGGMYHNTFTIQCSLPVFLSISVVDQPDLDPQFVREFYSASVAEDAAKGTSVLTVEAVDGDKGINDPVIYSISYSTRPGWFDIGADGVIRVNGSLDREQLLEADEEVQLQVTATETHLNIYGQEAKVSIWVTVRVMDVNDHKPEFYNCSLPACTFTPEEAQVNFTGYVDEHASPRIPIDDLTMVVYDPDKGSNGTFLLSLGGPDAEAFSVSPERAVGSASVQVLVRVSALVDYERQTAMAVQVVATDSVSQNFSVAMVTIHLRDINDHRPTFPQSLYVLTVPEHSATGSVVTDSIHATDPDTGAWGQITYSLLPGNGADLFQVDPVSGTVTVRNGELLDRESQAVYYLTLQATDGGNLSSSTTLQIHLLDINDNAPVVSGSYNIFVQEEEGNVSVTIQAHDNDEPGTNNSRLLFNLLPGPYSHNFSLDPDTGLLRNLGPLDREAIDPALEGRIVLTVLVSDCGEPVLGTKVNVTITVEDINDNLPIFNQSSYNFTVKEEDPGVLVGVVKAWDADQTEANNRISFSLSGSGANYFMIRGLVLGAGWAEGYLRLPPDVSLDYETQPVFNLTVSAENPDPQGGETIVDVCVNVKDVNDNPPTLDVASLRGIRVAENGSQHGQVAVVVASDVDTSAQLEIQLVNILCTKAGVDVGSLCWGWFSVAANGSVYINQSKAIDYEACDLVTLVVRACDLATDPGFQAYSNNGSLLITIEDVNDNAPYFLPENKTFVIIPELVLPNREVASVRARDDDSGNNGVILFSILRVDFISKDGATIPFQGVFSIFTSSEADVFAGSIQPVTSLDSTLQGTYQVTVQARDRPSLGPFLEATTTLNLFTVDQSYRSRLQFSTPKEEVGANRQAINAALTQATRTTVYIVDIQDIDSAARARPHSYLDAYFVFPNGSALTLDELSVMIRNDQDSLTQLLQLGLVVLGSQESQESDLSKQLISVIIGLGVALLLVLVIMTMAFVCVRKSYNRKLQAMKAAKEARKTAAGVMPSAPAIPGTNMYNTERANPMLNLPNKDLGLEYLSPSNDLDSVSVNSLDDNSVDVDKNSQEIKEHRPPHTPPEPDPEPLSVVLLGRQAGASGQLEGPSYTNAGLDTTDL

Variants of: B1
Settings: with mast2_human MAST2, Q6P0Q8
mast2_human MAST2, Q6P0Q8, sequence (Q6P0Q8 whole entry): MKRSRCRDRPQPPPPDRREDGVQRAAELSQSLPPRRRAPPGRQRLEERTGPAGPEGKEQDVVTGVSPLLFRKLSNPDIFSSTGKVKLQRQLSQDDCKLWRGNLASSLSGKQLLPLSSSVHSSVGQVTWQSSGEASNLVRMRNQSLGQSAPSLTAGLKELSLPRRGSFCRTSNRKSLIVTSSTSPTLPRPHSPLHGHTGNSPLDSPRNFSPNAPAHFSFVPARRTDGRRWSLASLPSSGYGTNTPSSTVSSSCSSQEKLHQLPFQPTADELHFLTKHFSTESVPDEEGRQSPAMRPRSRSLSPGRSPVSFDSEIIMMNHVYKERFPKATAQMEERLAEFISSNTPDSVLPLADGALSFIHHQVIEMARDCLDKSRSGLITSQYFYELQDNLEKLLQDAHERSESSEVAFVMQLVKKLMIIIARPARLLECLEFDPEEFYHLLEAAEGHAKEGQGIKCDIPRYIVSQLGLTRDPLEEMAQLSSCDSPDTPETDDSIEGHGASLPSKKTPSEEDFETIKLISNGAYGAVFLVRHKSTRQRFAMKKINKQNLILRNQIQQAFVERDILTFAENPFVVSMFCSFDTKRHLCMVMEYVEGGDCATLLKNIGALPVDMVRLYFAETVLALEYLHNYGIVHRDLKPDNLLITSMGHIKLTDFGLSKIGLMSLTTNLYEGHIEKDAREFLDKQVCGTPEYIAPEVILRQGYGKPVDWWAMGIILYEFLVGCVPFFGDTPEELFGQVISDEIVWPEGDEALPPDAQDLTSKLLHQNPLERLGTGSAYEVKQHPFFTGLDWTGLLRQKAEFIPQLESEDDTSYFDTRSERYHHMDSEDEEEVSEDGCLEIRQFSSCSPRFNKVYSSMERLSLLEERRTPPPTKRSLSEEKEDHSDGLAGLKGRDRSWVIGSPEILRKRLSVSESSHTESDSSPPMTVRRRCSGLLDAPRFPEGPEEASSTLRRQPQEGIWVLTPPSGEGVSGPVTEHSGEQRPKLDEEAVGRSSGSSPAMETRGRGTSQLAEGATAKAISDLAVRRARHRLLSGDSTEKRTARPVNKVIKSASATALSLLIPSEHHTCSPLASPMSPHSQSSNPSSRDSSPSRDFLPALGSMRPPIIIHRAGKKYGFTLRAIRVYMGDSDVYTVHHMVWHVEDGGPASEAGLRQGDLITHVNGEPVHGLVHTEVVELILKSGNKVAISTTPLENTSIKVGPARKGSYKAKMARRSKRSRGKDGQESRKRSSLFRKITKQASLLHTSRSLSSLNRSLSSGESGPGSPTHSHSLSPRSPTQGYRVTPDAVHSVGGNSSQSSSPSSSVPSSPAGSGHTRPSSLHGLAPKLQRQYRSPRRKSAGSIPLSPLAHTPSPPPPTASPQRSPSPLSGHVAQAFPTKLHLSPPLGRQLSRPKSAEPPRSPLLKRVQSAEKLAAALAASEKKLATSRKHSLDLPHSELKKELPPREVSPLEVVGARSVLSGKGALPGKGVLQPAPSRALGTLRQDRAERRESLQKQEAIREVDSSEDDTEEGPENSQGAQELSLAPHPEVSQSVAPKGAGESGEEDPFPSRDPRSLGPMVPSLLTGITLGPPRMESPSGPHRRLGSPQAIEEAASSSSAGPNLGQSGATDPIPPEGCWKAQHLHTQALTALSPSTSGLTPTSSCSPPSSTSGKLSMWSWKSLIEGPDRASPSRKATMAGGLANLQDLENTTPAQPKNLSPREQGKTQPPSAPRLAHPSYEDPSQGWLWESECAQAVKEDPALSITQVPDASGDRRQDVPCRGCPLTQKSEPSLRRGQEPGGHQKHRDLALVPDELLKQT

effect of a mutation on the interaction	Variant
decreasing interaction	L1310R
